Source: the DeepSol protein solubility set

Assay: soluble on expression in E. coli; label from the status in PepcDB or PDB records

Sequence | soluble on expression in E. coli
MSLDPDAGVIFARTAAGAAVALGLLKCGRIWLCPVCSGQDPARPSEEITEAVVSWLQQGGWAYLVTFTARHTAADRLSDLMDALQGTRADAETGTKRRPGAYQRLITGAAWAGDKRRKSNQEGIRGRIGYIGMIRATEVTVGEGAGWHPHIHAIVLVGGRTEGQRGDKRITGTFTPSEDALTEWEDRWRRSGPATLARSTPGFRPPTGARSPGATAGARATASTSSSSVRSGRQRPGRVHRQDAGRQEPGPGAGTRRPQGRPPGQHDVLRTPSRIGDLMGGVPEEEAAGHGSLAWGLDRWAEYETAVSGAGHRVDPLPAPAPGPDRRRHRGRRHGRPVPDRAARRFRDGVQIWDRAWKGLVGRSLDLAVVEAVEGREISMDALGELVQSAGQSRAFLRVLTPQEVTELYDELLRTLARRREQAAERRAAEAAEAEPTTREGHHHHHH | not soluble
GPGSMGADIVEVDVWRTSDGALILMHDETLDRTTNGTGRVCDHTLAEVRALRLKDGLGNMTEFTVPTVEEVLLLAKDRAILNLDKADVYLDELYPLLVKTGMVEQTILKSEIPFDELCKRYSADLLNRVIFMPILNITDTTTYKNIDRAFAANHALYEVNFEKENADVLQYIRKLAKNSGAALWINTIWPTTCGGYSDDHALRDKDANWGYVVDRIGAGIIQTDRPAMLLAYLQERGCR | not soluble
MYLHMAIAAPRILCPDMDSDTTKKWIFREPSRTDGDDVYALITECPPLDINSSYCNFLQATHFSKTCVLAEKDGDLAGFISGYQEPDEPNTLFIWQVAVSPRYRGKGLAFSMLTTLLERKNLLHIEFIETTITKANNASWSLFKKIDAQYGNQGQVTTFLDKESHFKGKHDTEYLYRIPLKSSQK | not soluble
MGSDKIHHHHHHMAKAFASQGDMSEKKISFTEVGEGLYAFTAEGDPNSGVIIGDDSVMVVEAQATPRLAQKVIDCIREVTDKPISHVVLTHYHAVRVLGASAFGAGQVIMSDTARSMVVERGQEDWDSEFQRFPRLFEGHESIPGLTWPTTTFSDSMTVYLGKRRVDIMHLGRAHTAGDAVIHVPDQNVMFTGDIVEYHSACYCGDGHFNDWGNTLDNIAWFDVDAIAPGRGDALVGKEMVNAAIENTRDFVQSTYRPAARVAARGGSLKEAWDAVRAECDPKFADYAIYEHCLPFNVARAYDEARGIDTPRIWTAQRDLEMWEALQG | not soluble
MIVSFMENYSDALNDIFQSLADPTRRAVILRLGGGEASIGTLAEPFAMALPSFMKHIRQLEEAGLIVTRKQGRVRFCSLEKQRFSMLDGWLSQQRAVWEGRTDRLEQFVMAQQDRMSSKGENDQ | not soluble
MSLRTYENVVILTDLTAGTTYYYKIVSTNSTVDHFLSPRVPGDETPFSINAVIDLGVYGEDGYTIKGDKSKKDTIPTINPALNHTTIGRLASTVDDYEFVIHPGDFAYADDWFLSLDNLLDGENAYQAILENFYEQLAPISGRKPYMASPGNHEAACQEIPFTTGLCPDGQKNFTDFMHRFGRTMPSSFTSVSTNDSAKVFANQARELAQPPFWYSFEYGMAHIVMINTETDFEDAPSGKGGSAHLNGGPFGAKNQQLEFLEADLASVDRDVTPWVIVAGHRPWYTAGSACTPCQEAFEDLLYTYGVDLGVFGHVHNAQRFLPVYNSVADPNGMQDPKAPMYIVAGGAGNIEGLSSITKQLDFTEFANDEDYTYSTIRFLDRNHLQVDFINSVSGEVLDTSTLYKSHEARFVREGHHHHHH | not soluble
MGNFTFEEMNLMCIYNTGSRTGLIDSLREMRGELSPEETELRELTDSALTKLCAMTDEDFAQLELYPDFDQLEHHHHHH | soluble
MSLAEPKWLQDLKEEDYIKEDFDATGKSRYTVEGIDKNDPDWLNKAAKKVHAAEGDDYVKLDAGLLTVNQINWMLRRAFGELTYVDDNNQFLWYNRPTDPNKKMLAKRTPDQVGDTMGAVHPDIRNVIPEAKKVIYALRNKIDGHDEVKMPVPNGNRHKLILHDYKRIEDDEGNYVGTYEWVQDIYPFVKYFCETTGQKLVDDPDATTGATYKRDEVDTGTGASKHEEHVEKKQEETDTSSGASEYEGHHHHHH | soluble
MPTYKLSYFDVRAYAEPARILFHLAGVPFDDHRFPHGDGTWEKLKDKTPFGQVPVLYVDGFEIPQSAAIIRYLANKFGYAGKTPEEQAWADAIVDQFKDFMSLFREFKLAQKAGKSDVEIAKVASEVAIPARDSYFEIITNLLEKSKSGFLVGDGLTFADIVVVESLTNLEKVHFFDASEHPKLAALREKIYAIPAIKSWVDIRPDTIY | not soluble
MPQLSIIIPLFNSCNFISRALQSCINQTLKDIEILIIDDKSKDNSLNMVLEFAKKDPRIKIFQNEENLGTFASRNLGVLHSSSDFIMFLDSDDFLTLDACKIALKEMKKGFDLLCFDAFVHRVKTKQFYRFKQDEFFNQKEFLEFLSKQRHFCWSVWAKCFRKDIILKSFEKIKIDERLSYGEDVLFCYVYFMFCEKIAVFKTCIYHYEFNPNGRYENKNKEILWQNYQDKKKSNELVKKLCLNFKNNDFHKKLFEVLEKEEFDLQRRVDEARNLEHHHHHH | soluble
MWEYLIHGEPTPRLKPFLEGVGKALEAQGFRHNPESEAPNLVLNAITPENPRPYRRRAQATFVASVLELPEFPQDPLRELYPYLVRALSNVLLAYVPGQGVKFLTLELGHYGEPEGKGFYERVAARLRPIACSRLVINNIFEPDLEPELWQGDELTESMYRAGKKLKEWDLLPAPFPIEEILPPEDLRHVKRLYGIGGLSYGNLSVRKDEKRFWMSASGVDKANLREIGRDILMVKDYDPERNAILLSVPPHVEPRRVSVDAIEHWMIYREHPEVGAILHVHAWMEGVPATAFNYPCGTYELAQAVADKVREAPDPARAVVGLKNHGLTITGRSLDEILERIEGKLIRTVPMA | soluble
MTKINVPLETSNKTTSDLEKKKPFSVLLMGSDARPGETNGRADTIILATANKQQNAVEMVSIPRDTKVDYGNGDIGKINASYSNGGPSGTVSAVEKLMPGVPVDYFISINMEGFKDLVDAVGGITVYNDIDLTEVNSKFVKGNITLNGTDALQYVRIRHEDPRGDFGRQDRQRDVIIGIANKVISSSGVSNFESIMKAVGDNFQTNMTLTDITSMATNYSSVLKNVDSQELKGEGEMIYSESYGFDLYYFAPDETDLERVINMFKKSLDITELEHHHHHH | soluble
MALNTNQLFAYLNRGDIAEFKFSPLFTTLFFPNVATFSTQNIMLDTLDIEEVTMSAFCSPMVGSQVQRDKGYETSTIKPGYMKPKHEIDPTKTIMRMAGEDPAQLNDPTYRRMRLITGNMRRQINAIKARVEWLAVNAVTTGKNIIEGEGIERYEIDWKIPEKNIIEQADGKKWSEQDKETHYPIYDIELYADQAGCPANVMIMGAEVWRTLRSFKKFRELYDLSRGSESAAELACKNLGEVVSFKGYLGDLALIVYSGKYTDSDGTEKYFLEPDLLVLGNTNNKGLVAYGAIMDQEAVRTGATQNMFYPKNWIEDGDPAIEYVQTHSAPQPVPADIRKFVTVKIA | not soluble
MIIDGHTHVILPVEKHIKIMDEAGVDKTILFSTSIHPETAVNLRDVKKEMKKLNDVVNGKTNSMIDVRRNSIKELTNVIQAYPSRYVGFGNVPVGLSENDTNSYIEENIVNNKLVGIGELTPASGQIKSLKPIFKYSMDSGSLPIWIHAFNPLVLQDIKEIAELCKAFPKVPVILGHMGGSNWMTAVELAKEIQNLYLDTSAYFSTFVLKIVINELPLKCIFGTDMPFGDLQLSIEAIKKMSNDSYVANAVLGDNISRLLNIMAGDPLEHHHHHH | not soluble
YENIQNIEDFYRFINAHALAVVHIMRDNCTVCHAVLPQIQDLLKDYPKAQLGVINQSNVEEIAGELSIFTVPVDLIFLKGKEMHRQARFIDMQSFEKQLYMMQNAID | soluble
MFSRVRVSAPSHVHAGNYDIEGSIGRLYGTVGLALGEPRLTLEASPSHSVEVEGGSRRREAEDLARLYLDKVGSRGCRLEGVKIRIYEEIPAHVGLGSTTALALSIGSSIYRICGLEPLDLRELAVTAGRSLVSALGLYSFEQGGLIVDGGFVRGERRPPPLVFRAHVPGSVKVVVALPERPIAKILDIKRREDELLARMPPMDPSMAGWASRVVLLGIMANAAEGRWGEAARWMGEFNRRLGEYWAGEQGGIYCCSEVEEIVRAMVDAGAWSGLQSSWGPTVYGLTPARRAASVLEAARRAVERVGGGKVWVTSVDNVGAVISSF | not soluble
